# Reference: US20220332804A1 (CSL INNOVATION, published 2022)
# Positions count from the first letter of the chain named.
# T1: human C2 A326S (human, UniProt P06681 21-752)
# T1 sequence: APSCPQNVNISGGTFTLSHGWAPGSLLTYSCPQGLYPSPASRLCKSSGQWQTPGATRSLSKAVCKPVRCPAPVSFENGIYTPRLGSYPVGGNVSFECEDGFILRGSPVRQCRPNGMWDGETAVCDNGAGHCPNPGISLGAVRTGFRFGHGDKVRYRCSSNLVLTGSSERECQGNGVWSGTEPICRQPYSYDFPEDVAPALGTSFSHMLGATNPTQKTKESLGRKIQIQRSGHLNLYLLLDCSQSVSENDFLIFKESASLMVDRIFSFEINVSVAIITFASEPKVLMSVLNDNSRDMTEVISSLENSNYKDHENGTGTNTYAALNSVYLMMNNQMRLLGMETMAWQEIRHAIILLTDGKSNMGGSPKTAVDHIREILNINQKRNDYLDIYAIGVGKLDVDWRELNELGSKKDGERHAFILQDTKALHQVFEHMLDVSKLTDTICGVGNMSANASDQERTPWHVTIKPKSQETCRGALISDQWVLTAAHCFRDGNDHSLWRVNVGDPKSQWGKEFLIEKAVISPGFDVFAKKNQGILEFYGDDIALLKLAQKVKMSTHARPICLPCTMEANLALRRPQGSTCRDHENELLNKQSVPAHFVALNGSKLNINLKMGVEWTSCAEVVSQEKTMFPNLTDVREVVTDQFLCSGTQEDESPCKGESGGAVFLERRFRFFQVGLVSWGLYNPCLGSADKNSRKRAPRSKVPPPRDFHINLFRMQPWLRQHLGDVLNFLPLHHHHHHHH
# T2: human C2 D404A (human, UniProt P06681 21-752)
# T2 sequence: T1 sequence with S306A, D384A
# T3: human C2 N467A (human, UniProt P06681 21-752)
# T3 sequence: T1 sequence with S306A, N447A
# T4: human C2 V448A (human, UniProt P06681 21-752)
# T4 sequence: T1 sequence with S306A, V428A
# B1: RF16-242 (antibody, human IgG4 S228P, lambda, V domains shown)
# VH: EVQLLQSGAEVKKPGESLKISCKGSGYSFTSYWIGWVRQMPGKGLEWMGIIYPGDSDTRYSPSFQGQVTISADKSISTAYLQWSSLKASDTAMYYCARRGHYGDYFDYWGQGTLVTVSS
# VL: SYELTQPPSVSVSPGQTARITCSGDALPKKYAYWYHQKSGQAPVLVIYEDRRRPSEIPERFSGSSSGTMATLTITGAQVEDEGVYFCYSRDRAGNQRVFGGGTQLTVLG
# notes: pH-dependent anti-C2 antibody from a phage display library
# Columns and labels:
# Test in all cases: SPR, antibody captured, C2 as analyte;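 also: biacore at 37 °C, anti-C2 mAbs held by immobilised goat anti-human IgG, C2 alanine or serine mutants injected, double-referenced sensorgrams fitted to a 1:1 kinetic or steady-state model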
# [1] = target: T1, human C2 A326S
# [2] = target: T2, human C2 D404A
# [3] = target: T3, human C2 N467A
# [4] = target: T4, human C2 V448A
binder,measurement,setting,value
B1,Kd,[1],9.9 nM
same,Kd,[2],16.4 nM
same,Kd,[3],13.4 nM
same,Kd,[4],5 nM
